Experimental data reported in article PMC11852578, “Enhanced Site-Specific Fluorescent Labeling of Membrane Proteins Using Native Nanodiscs” (Biomolecules, 2025).
Numbering of substitutions follows the chain as printed. In names and notes the source's numbering stands.

B1: KvAP wild type, archaeal voltage-gated potassium channel from Aeropyrum pernix, in DM detergent micelles (natural protein)
chain: GGRVRNIGDVMEHPLVELGVSYAALLSVIVVVVEYTMQLSGEYLVRLYLVDLILVIILWADYAYRAYKSGDPAGYVKKTLYEIPALVPAGLLALIEGHLAGLGLFRLVRLLRFLRILLIISRGSKFLSAIADAADKIRFYHLFGAVMLTVLYGAFAIYIVEYPDPNSSIKSVFDALWWAVVTATTVGYGDVVPATPIGKVIGIAVMLTGISALTLLIGTVSNMFQKILVGEPEPSCSPAKLAEMVSSMSEEEFEEFVRTLKNLRRLENSMK
notes: voltage-gated potassium channel KvAP, Aeropyrum pernix; native cysteine printed as C260; Labelling with AF647 maleimide failed in detergent, so the protein was unlabelled; also called wild-type KvAP; source: E. coli C43, pET21a-derived vector, membranes solubilised in DM, purified (Ni-NTA, SEC)
B2: KvAP E275C single-cysteine mutant, in DM detergent micelles (natural protein, Aeropyrum pernix)
chain: B1 chain with C236A, E251C
notes: voltage-gated potassium channel KvAP, Aeropyrum pernix; native cysteine mutated to alanine and cysteine introduced at E275; Labelling failed in detergent, so the protein was unlabelled; source: E. coli C43, pET21a-derived vector, membranes solubilised in DM, purified (Ni-NTA, SEC)
B3: KvAP K102C single-cysteine mutant, in DM detergent micelles (natural protein, Aeropyrum pernix)
chain: B1 chain with K78C, C236A
notes: voltage-gated potassium channel KvAP, Aeropyrum pernix; native cysteine mutated to alanine and cysteine introduced at K102; Labelling failed in detergent, so the protein was unlabelled; source: E. coli C43, pET21a-derived vector, membranes solubilised in DM, purified (Ni-NTA, SEC)
B4: KvAP E275C single-cysteine mutant labelled with AF647 maleimide, in Glyco-DIBMA native nanodiscs (natural protein, Aeropyrum pernix)
chain: B1 chain with C236A, E251C
modifications: Alexa Fluor 647 maleimide on the introduced cysteine E275C
notes: voltage-gated potassium channel KvAP, Aeropyrum pernix; native cysteine mutated to alanine and cysteine introduced at E275; Same construct as m4, but labelled and in a nanodisc; also called mutant E275C; source: E. coli C43, membranes extracted with Glyco-DIBMA, purified (Ni-NTA with on-column labelling, SEC)
B5: KvAP wild type labelled with AF647 maleimide, in Glyco-DIBMA native nanodiscs (natural protein, Aeropyrum pernix)
chain: B1 chain
modifications: Alexa Fluor 647 maleimide on the native cysteine C260
notes: voltage-gated potassium channel KvAP, Aeropyrum pernix; native cysteine printed as C260; Same construct as m1, but labelled and in a polymer-encapsulated lipid nanodisc; also called wild-type KvAP; nanodisc-purified wild-type KvAP; source: E. coli C43, membranes extracted with Glyco-DIBMA, purified (Ni-NTA with on-column labelling, SEC)
B6: KvAP K102C single-cysteine mutant labelled with AF647 maleimide, in Glyco-DIBMA native nanodiscs (natural protein, Aeropyrum pernix)
chain: B1 chain with K78C, C236A
modifications: Alexa Fluor 647 maleimide on the introduced cysteine K102C
notes: voltage-gated potassium channel KvAP, Aeropyrum pernix; native cysteine mutated to alanine and cysteine introduced at K102; Same construct as m3, but labelled and in a nanodisc; also called mutant K102C; source: E. coli C43, membranes extracted with Glyco-DIBMA, purified (Ni-NTA with on-column labelling, SEC)
B7: HpUreI L134C single-cysteine mutant, Helicobacter pylori proton-gated urea channel, in detergent (DDM or LDAO) (natural protein)
chain: MLGLVLLYVGIVLISNGICGLTKVDPKSTAVMNFFVGGLSIICNIVVITYSALHPTAPVEGAEDIAQVSHHLTSFYGPATGLLFGFTYLYAAINHTFGLDWRPYSWYSLFVAINTIPAAILSHYSDMLDDHKVCGITEGDWWAIIWLAWGVLWLTAFIENILKIPLGKFTPWLAIIEGILTAWIPAWLLFIQHWV
notes: urea channel HpUreI, Helicobacter pylori; The hexamer remained unlabelled in detergent; with TCEP only aggregated and non-hexameric oligomers were labelled; also called detergent-solubilized HpUreI; source: E. coli C43, membranes solubilised in DDM or LDAO, purified (cobalt beads, HRV 3C cleavage, SEC)
B8: HpUreI L134C single-cysteine mutant labelled with AF647 maleimide, in Glyco-DIBMA native nanodiscs (natural protein)
chain: B7 chain
modifications: Alexa Fluor 647 maleimide on the introduced cysteine L134C
notes: urea channel HpUreI, Helicobacter pylori; Same construct as m7, but labelled and in a nanodisc; no removal of the His tag is told for the nanodisc preparation; also called nanodisc-embedded HpUreI; source: E. coli C43, membranes extracted with Glyco-DIBMA, purified (Ni-NTA with on-column labelling, SEC)

How the values were obtained:
[1] = molecular target: the molecule itself; assay: SEC; KvAP in 0.25% (w/v) DM micelles; Superdex 200 Increase 10/300; SEC buffer 100 mM KCl, 25 mM Tris, pH 8; size estimated against gel filtration standards
[2] = molecular target: the molecule itself; assay: fluorescence correlation spectroscopy (molecular brightness); SEC-purified, AF647-labelled protein in Glyco-DIBMA nanodiscs; brightness compared with free AF647 maleimide dye at the same laser power, assuming labelling of all monomers
[3] = molecular target: the molecule itself; assay: SEC; KvAP in Glyco-DIBMA native nanodiscs, labelled with AF647 maleimide; standard buffer 150 mM KCl, 50 mM Tris, pH 7.4; UV and fluorescence detection
[4] = molecular target: the molecule itself; assay: SDS-PAGE; HpUreI L134C purified in LDAO instead of DDM
[5] = molecular target: the molecule itself; assay: SEC; HpUreI L134C in Glyco-DIBMA native nanodiscs, labelled with AF647 maleimide; standard buffer 150 mM NaCl, 50 mM Tris, pH 7.4

Protein | stoichiometry N [1] | stoichiometry N [2] | also measured
B1 | 4 | – | –
B2 | 4 | – | –
B3 | 4 | – | –
B4 | – | ~4 | –
B5 | – | ~4 | stoichiometry N [3]: 4
B6 | – | ~4 | –
B7 | – | – | stoichiometry N [4]: 6
B8 | – | ~6 | stoichiometry N [5]: 6
